Measured values taken from the DeepSol protein solubility set.

test: soluble on expression in E. coli; label from the status in PepcDB or PDB records

Sequence	soluble on expression in E. coli
MAMHPRAGQKARQEDLHNIPALVANYYLLQPEAGNTAHKVEFGTSGHRGTADKTTFNEHHILAIAQAVADVRHEHGVTGPIFIGKDTHALSEPAFSSVLEVLIANGIEVIVQENNGYTPTPGISHAILTYNLKHADKADGIVITPSHNPPQDGGIKYNPPHGGPAEGELTQAIEDRANAYISQQLAGVKRMPIALAKQSELLKQVDLVKPYVDDLVNVVDMAAIQKAKLKIGVDPLGGSGIDYWRQIGNAYQLDLTLVSEAIDPSFQFMSLDKDGVIRMDCSSPYAMAGLLALKDEYDLAFGNDPDYDRHGIVTPKGLMNPNHFLAVCIDYLYRHRQGWAGHVAVGKTLVSSAMIDKVVADLGRELCEVPVGFKWFVDGLYSGRFGFGGEESAGASFLRQDGTPWSTDKDGIILCLLAAEITAVTGKNPQQYYDELAAKHGDFYYSRIQAVANGPQKNVLKKLSPEMVSAQTLAGDAITARLTHAPGNGAAIGGLKVTTDYGWFAARPSGTEDIYKIYCESFKGAEHLKQIESEAQQIVNQVFKDAGL	not soluble
MAMNYLEAFPKELREYYKNLFGKEEANKIMKKLREPVEHYYIRVNTLKISREKLIGELKKEGLKPLRSPYLPEGLYFVREGPNFSDDFEPKLPVVVANKYAAESVYQGAMLYAPGVLKADKNIKEGDEVQIRDPKGLLVGIGIARMDYKEMTEATRGLAVEVTLPKFKLPSLSELKAFEKGYFYPQGLPSMVTARVLEPKEDDVIIDMAAAPGGKTTHIAQLLENKGEIIAIDKSKNRLRKMEENIKRLGVKNVKLVQMDARKLPDLGIKADKILLDAPCTALGVRPKLWEERTLKHIEATARYQRAFIWAAIKSLRRGGVLVYSTCTLSYEENEGNVKFMIRKGMKLEEQSIFIGSPGIGMNKVQRFYPHKHLTQGFFIAKLRKVKDI	soluble
MANEMKVFLLTKQGQEVMERQRKKQVLLSDPKAVYQDHFVSVRPDCLVVKKYFIPSMLPFEFHWDKIETMTYLPQNNENKLLVPNRGQDQEGRWWATDVLRPHERELHLYNVRIDVADTEPSKSGFTVIHIDQFLKSCRHLLPYSCKLSGCVWSE	not soluble
MANEQVLTAEQVLEKASQYLVDEDIELVARAYEYARDAHSEQYRKSGEPYIIHPIQVAGVLVDLHMDPATVSAGFLHDVVEDTEITLEDIEREFNKEIAMLVDGVTKLGKIKYKSHEQQQAENHRKMFIAMAQDIRVILIKLADRLHNMRTLKHLPQEKQRRIANETLEIFAPLAHRLGISTIKWELEDTSLRYLNPQQYYRIVNLMKRKRAEREEYLDEVMTGIREKLDEVAIQPEISGRPKHIYSIYRKMALQNKQFNEIYDLLAVRVVVNSIKDCYAVLGIIHTCWKPMPGRFKDYIAMPKANLYQSLHTTVIGPKGDPLEVQIRTKEMHEIAEFGIAAHWAYKEGKTAETTGTLEKKLTWFRQILEWQNEASNAEEFMESLKIDLFSDMVFVFTPKGDVMELPLGSVPIDFAYRVYSEIGNKTIGAKVNGKMVTLDYKLKTGDIIEILTSKHSYGPSQDWVKLAQTSHAKNKIRQFFKKQRRDENIEKGRELVEKEVRSLEYEMKEVLAPDNLKRVAEKFNFANEEDMFAAVGYNGITASQIVTRLTDKFRKQREEEEIVEVKEVRKPMKIRKWDSGVKVSGADNLLIRLSKCCNPVPGDDIVGYITKGRGVSIHRRDCVNVHTEEAIERLLEVEWEGSPEKEIEYNVDIEISGYDRRGLLNEVLQAVTETKTYISAVSGRSDRNKMATINMSISIRNLQHLKKVVERIKRVPEIYAVRRMMH	not soluble
MANKNYQMSTGVTAVVQKVVEACQDESKRLDLIEIARSYPPNQLRNMQRTFQAITGTFLDAFLKKHLSKDFESLVLMLYKPRAQLLCELIRGATKGAGTDEKCLVDVLLTIETHEVREIRQLYYQLYNDSLGDVVRKDCGDKYMWAKLINAVATGDRIPRDTHELEEDLVLVRKAIETKGVKKDEVSTWIRIFATYTRADFRQLHKMYSAKYNGDSLRAGVEDEFQGLDEYAFKLAHDFLYDPCCAAAFSMNVAFAGSGSDSNRLNRITAMHFRECKGCKYYYKKVYGQAFDERCATELKGVYGDAIKLLWEPVTVPLLSMDDYQGSEQHRPMTLEL	soluble
MANLPSSSGMFSRLLANVFNTTVASRCSASGRWWPQPDRRFTTKSDEKSSLEPKNTNETDVIITQQGVKLSKSNAAPVYYKPKSTGPGYELVEHKKGEMIANYTLFEAAINKSKVPWVNYDGLTSEERTIHMAHTRAINDRKLTYIDPKTGYSVFTISHHLQKGKCCGNGCRHCAYEMINASDEIRSQKVWNGAFYV	not soluble
MANLTEKFLRIFARRGKSIILAYDHGIEHGPADFMDNPDSADPEYILRLARDAGFDGVVFQRGIAEKYYDGSVPLILKLNGKTTLYNGEPVSVANCSVEEAVSLGASAVGYTIYPGSGFEWKMFEELARIKRDAVKFDLPLVVESFPRGGKVVNETAPEIVAYAARIALELGADAMKIKYTGDPKTFSWAVKVAGKVPVLMSGGPKTKTEEDFLKQVEGVLEAGALGIAVGRNVWQRRDALKFARALAELVYGGKKLAEPLNV	soluble
MANLVYSPKDILQKEFKTKMMNGYDPIEVDEFLDNVIKDYEAYNKELLSLQEENSRLMAKLDQLSKAQPTPRVAQEVPKSAAVTNFDILKRLSNLEREVFGKKLDETPSTPVTPSAPSMPAEPANHDVDNAQTRQF	not soluble
MANPELLEEQREETRLIIEELLEDGSDPDALYTIEHHLSADDFETLEKAAVEAFKLGYEVTEPEELEVEEGDTVICCDILSECALNAELIDAQVEQLMNLAEKYDVEYDGWGTYFEDPNGEEGDDDDYVDEDDDGVRH	not soluble
MANSAGSMADNSKTRVVVGMSGGVDSSVTALLLKEQGYDVIGIFMKNWDDTDENGVCTATEDYKDVAKVADQIGIPYYSVNFEKEYWDRVFEYFLAEYRLGRTPNPDVMCNKEIKFKAFLDYAMQLGADYVATGHYAQVETDENGVVHMLRGIDNNKDQTYFLSQLSQAQLAKTMFPLGGMEKSEVRAIAERAGLATAKKKDSTGVCFIGEKNFKEFLSNYLPAKKGNMVTEDGEIKGQHDGLMYYTIGQRQGLGIGGGGKTQEPWFVIGKDLTTNTLYVGQGFHHEKLYATHLEASEVHFTVDTPMPKEFDCTAKFRYRQADIPVHVSLSEDGTKATVTFKEPARAVTPGQAVVFYDGMECLGGGLIDRAYQDEKELQYVLEHHHHHH	not soluble
MAPAPAAEFWEARYRDTGRVWSGRPNELLVQEAGGLAPGTALDLGCGEGADAVWLASRGWRVTGVDISATALERAAGHADGAGVGDRVLWERHELGPSFPEGSFDLVSAHYLQSPVALDQQAVLRAAARAVAPGGTLLVVMHAGWPSWQTEPPFDAAFPTLDGVLAELALPEGEWSVETRRTARRPLEHHHHHH	not soluble
MAPLFAVTLYEFKAERDDELDVSPGENLSICAHYDYEWFIAKPINRLGGPGLVPVSYVRIIDLMDPAKYASVDTYDREQVMKIIDEFKIPTVEQWKDQTRRYKESSIQIGNGHGQSQGLE	soluble
MAPRGRYGPPSRRSENRVVVSGLPPSGSWQDLKDHMREAGDVCYADVYRDGTGVVEFVRKEDMTYAVRKLDNTKFRSHEGETAYIRVKVDGPRSPSYGRSRSRSRSRSRSLEH	soluble
MAPSMIPFTIKLKTCLKMCIQRLRYAQEKQQAIAKQSRRQVAQLLLTNKEQKAHYRVETLIHDDIHIELLEILELYCELLLARVQVINDISTEEQLVKEHMDDGINEAIRSLIYAILFVDEVKELSQLKDLMAWKINVEFVNGVIADHIDVPEKIIKKCSPSVPKEELVDLYLKEIAKTYDVPYSKLENSLSS	soluble
